# Assay results taken from publication PMC4144766.
# Legend:
# [1] = target: YFP^N-TaNPSN11 (full-length TaNPSN11 fused to the N-terminal part of YFP) (Triticum aestivum (common wheat)); test: split reporter (BiFC, NanoBiT); BiFC in tobacco (Nicotiana benthamiana) protoplasts; YFP^N (pSY736) and YFP^C (pSY735) fusions co-expressed by the polyethylene glycol method; fluorescence monitored 24-48 hours after transformation; fluorescent and observed cells counted from ten fields of vision
# [2] = target: YFP^N-TaHSP90 (Triticum aestivum); test: as above
# Chain of YFP^N-TaNPSN11 (full-length TaNPSN11 fused to the N-terminal part of YFP) (Triticum aestivum (common wheat)) (main, as listed by the source): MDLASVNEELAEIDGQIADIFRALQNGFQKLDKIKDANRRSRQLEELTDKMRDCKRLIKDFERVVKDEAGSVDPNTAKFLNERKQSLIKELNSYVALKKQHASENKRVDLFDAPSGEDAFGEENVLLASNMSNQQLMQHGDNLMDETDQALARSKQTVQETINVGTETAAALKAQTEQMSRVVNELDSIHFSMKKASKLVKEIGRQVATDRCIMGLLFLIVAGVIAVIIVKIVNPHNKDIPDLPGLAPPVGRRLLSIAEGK
ratio of fluorescent cells [1],ratio of fluorescent cells [2],Substance
0.06,,YFP^C-TaSYP132 (full-length TaSYP132 fused to the C-terminal part of YFP) (natural protein)
,0.25,YFP^C-TaRAR1 (natural protein)
